The text below walks through data of EP3741773A1.

In this experiment the target is cetuximab. Nature of the experiment: SPR, immobilized cetuximab IgG (Figure 12).

Some results are limits rather than exact numbers.

Sequence of avidin saturated with biotinylated meditope (P02701 25-152): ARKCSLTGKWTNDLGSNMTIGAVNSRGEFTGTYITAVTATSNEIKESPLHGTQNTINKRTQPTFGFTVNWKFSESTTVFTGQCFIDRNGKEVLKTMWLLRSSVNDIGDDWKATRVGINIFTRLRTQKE

“avidin saturated with biotinylated meditope (from UniProt P02701 25-152)” registered a fold reduction of the off-rate against the monovalent meditope of over 36 fold.
